Measured values as given in paper PMC3291610, “Identification of the Neogenin-Binding Site on the Repulsive Guidance Molecule A” (PLoS ONE, 2012).

Target: T1, Recombinant mouse neogenin-Fc chimera protein (mouse, UniProt P97798 37-1136)
T1 construct: neogenin, mouse, extracellular domain (ECD); No catalogue number printed; detected by an anti-IgG Fc antibody; also called neogenin-ECD-Fc; Fc-fused neogenin ECD; source: bought: R&D Systems
T1 sequence (looked up): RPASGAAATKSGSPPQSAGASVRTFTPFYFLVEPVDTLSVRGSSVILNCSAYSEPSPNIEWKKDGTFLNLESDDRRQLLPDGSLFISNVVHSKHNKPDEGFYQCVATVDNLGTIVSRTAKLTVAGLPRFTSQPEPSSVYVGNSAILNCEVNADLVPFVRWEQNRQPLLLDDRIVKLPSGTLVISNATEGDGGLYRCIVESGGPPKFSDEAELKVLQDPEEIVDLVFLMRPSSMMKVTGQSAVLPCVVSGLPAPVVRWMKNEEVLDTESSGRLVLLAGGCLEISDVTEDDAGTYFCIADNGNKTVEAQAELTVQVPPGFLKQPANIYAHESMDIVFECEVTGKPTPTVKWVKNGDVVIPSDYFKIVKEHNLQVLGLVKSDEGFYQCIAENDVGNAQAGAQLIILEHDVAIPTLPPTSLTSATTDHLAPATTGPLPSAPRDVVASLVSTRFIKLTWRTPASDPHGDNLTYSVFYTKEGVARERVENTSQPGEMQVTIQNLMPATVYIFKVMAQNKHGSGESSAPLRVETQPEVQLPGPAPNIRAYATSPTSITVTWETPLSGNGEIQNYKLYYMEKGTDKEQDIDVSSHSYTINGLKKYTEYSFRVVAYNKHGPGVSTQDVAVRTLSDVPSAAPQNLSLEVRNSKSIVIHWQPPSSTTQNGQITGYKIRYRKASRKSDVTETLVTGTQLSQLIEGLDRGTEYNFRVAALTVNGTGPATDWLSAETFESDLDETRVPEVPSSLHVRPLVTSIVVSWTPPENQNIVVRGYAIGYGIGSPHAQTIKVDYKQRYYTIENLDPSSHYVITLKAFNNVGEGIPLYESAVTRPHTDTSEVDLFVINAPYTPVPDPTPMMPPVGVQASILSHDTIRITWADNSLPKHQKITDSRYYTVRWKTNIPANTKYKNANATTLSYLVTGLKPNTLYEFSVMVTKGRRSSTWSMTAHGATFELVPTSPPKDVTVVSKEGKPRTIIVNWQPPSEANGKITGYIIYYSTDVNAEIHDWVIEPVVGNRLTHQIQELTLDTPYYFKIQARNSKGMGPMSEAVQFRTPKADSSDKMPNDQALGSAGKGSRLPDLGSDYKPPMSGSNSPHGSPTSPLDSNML
Assay: ELISA; synthetic TAT-RGMa peptides coated on the plate (5 µg/mL, 16 h, 4°C), blocked with 5% BSA/PBS; neogenin-Fc added at 1 µg/mL for 1 h; detected with anti-IgG Fc antibody and HRP secondary, A450
Conditions: both partners purified

B1: RGMa peptide 4 (aa 284-293) fused with an N-terminal TAT protein (peptide)
peptide: YGRKKRRQRRRRQVGRYLTFA
notes: The TAT-fused form was used in the ELISA; peptide 4 without TAT was used in the growth cone collapse assay; also called Pep4; source: synthetic peptide (SIGMA Life Science, Japan)
- binding result: binds
